Columns and labels:
[1] = molecular target: CccR1-220 (Yersinia pseudotuberculosis, UniProt Q666X7 1-220); test: ITC; settings: protein: recombinant; tags: His6 (pET28a) or GST (pGEX6p-1)
[2] = molecular target: CccR201-380 (Yersinia pseudotuberculosis, UniProt Q666X7 201-380); test: ITC; settings: protein: recombinant; tags: His6 (EMSA)
[3] = molecular target: CccR (Yersinia pseudotuberculosis, UniProt Q666X7 1-380); test: ITC; stoichiometry 1:2; settings: protein: recombinant; tags: His6 (pET28a) or GST (pGEX6p-1); His6 stated for EMSA; chain copies: 2

B1: PcccR 100-bp ITC probe (dsDNA)
DNA 1: ATATTCAATCGGATGTATCGCCACGGATTTTTGAGATAATCATAAAGTTACTTTTGAGATAATCTACAAATGATAATCTGTTAACATAATGGCTATAAAG
DNA 2: CTTTATAGCCATTATGTTAACAGATTATCATTTGTAGATTATCTCAAAAGTAACTTTATGATTATCTCAAAAATCCGTGGCGATACATCCGATTGAATAT
[1]
  Kd: 1530 ± 130 µM
[2]
  Kd: 6.13 ± 0.11 µM
[3]
  Kd: 2.56 ± 0.12 µM
